Consider two molecules from patent US20180244783A1, “COMBINATION THERAPY FOR TREATMENT OF DISEASE” (OncoMed Pharmaceuticals, Inc., priority 2015, published 2018).

Data set [1] deals with B16F10 melanoma. In words: B16F10 melanoma tumor growth in mice. The class given is in vivo. The following applies: B16F10 melanoma in C57b16/J mice; vs control antibody (Hamster IgG); 18R5 45 mg/kg Q2W, 54F28 50 mg/kg Q2W, anti-CTLA-4 (4F10-11) 10 mg/kg 3QW; n=10. The protocol:
B16F10 melanoma cells were implanted into the rear flanks of C57b16/J mice. When tumors reached a mean tumor volume of ˜100 mm^3 as measured by electronic caliper, mice were grouped and treated with a control antibody (Hamster IgG, 10 mg/kg, 3QW), 18R5 (45 mg/kg, Q2W), anti-CTLA-4 (4F10-11, 10 mg/kg, 3QW), 54F28 (50 mg/kg, Q2W), or a combination of 18R5+ anti-CTLA-4 or 54F28+ anti-CTLA-4. […] Data shown represents the mean ±SEM (n=10).

Data set [2] has as its system B16F10 target cells. In words: T cell cytotoxicity, calcein release from B16F10 target cells. The class given is in vivo, mouse. The following applies: splenocytes of treated B16F10 tumor-bearing mice, cultured 6 days with mgp100 peptide; effector:target 25:1; vs Hamster IgG; FIG. 2B. The protocol: To measure changes in T cell toxicity, the mouse melanoma cell line B16F10 was cultured in DMEM culture medium supplemented with 10% (v/v) fetal bovine serum (FBS), 2 mM L-glutamine, and 100 U/mL penicillin at 37° C. in a humidified atmosphere of 5% CO2. Total splenocytes from were cultured for 6 days in RPMI 1640 medium supplemented with 10% FBS, 2 mM L-glutamine, 100 U/mL penicillin, and 1 μg/mL mgp100 peptide (Anaspec). B16F10 target cells were labeled with 10 μM calcein AM (Life Technologies) for 1 hour at 37° C. and then combined with the splenocytes at an effector:target ratio of 25:1. Following a four-hour incubation at 37° C., cell-free supernatants were harvested and calcein release was quantified on a fluorometer at an excitation of 485 nm and an emission of 535 nm. The percentage of specific cell lysis was determined as: % lysis=100×(ER-SR)/(MR-SR), where ER, SR, and MR represent experimental, spontaneous, and maximum calcein release, respectively. Spontaneous release is the fluorescence emitted by target cells incubated in media alone (i.e., in the absence of effector cells), while maximum release is determined by lysing target cells with an equal volume of 10% SDS. For all groups, p<0.05 vs. Hamster IgG.

The test system of data set [3] is B16F1 melanoma cells. Briefly: B16F1 melanoma tumor growth with GVAX, anti-CTLA-4 and anti-PD-L1. The data set is classed as in vivo. The following applies: C57BL6J mice, murine chimera 18R5 added to anti-CTLA-4 (9D9) + anti-PD-L1 (10F.9G2), compared to these antibodies without 18R5, FIGS. 3A-3D. Here is the method: The effect of the anti-Fzd antibody, OMP-18R5, on melanoma cell line tumor growth was tested animals receiving the combination of anti-CTLA-4 and anti-PD-L1 antibodies. In these experiments, ten thousand B16F1 melanoma cells were injected subcutaneously into C57BL6J mice. On days 4, 7, and 10 post-implantation, “GVAX” tumor vaccine was administered by the injection of 2 million mitomycin C-treated cells of a B16F1 subclone stably transfected with a plasmid encoding m-GM-CSF (with GM-CSF expression confirmed by ELISA), as previously described by Curran and Allison, Cancer Res 69:7747, 2009. Anti-CTLA-4 clone 9D9 (BioXCell; West Lebanon, N.H.) was dosed on days 5, 8, and 12. Anti-PD-L1 clone 10F.9G2 (BioXCell) was dosed on days 5, 8, 12, 14, 19, 22, and 26, and either 1B7.11 isotype or murine chimera 18R5 were administered days 5, 12, 19, and 26 following parental B16F1 cell implantation.

Data set [4] relates to splenocytes. Briefly: ELISpot cytokine secretion assay of splenocytes (hgp100 peptide). The following applies: splenocytes with 1 μg/ml hgp100 peptide, 18R5 added to anti-CTLA-4 + anti-PD-L1 therapy. The class given is in vivo, mice. The protocol:
Using the ELISpot cytokine secretion assay, secretion of IFN-gamma and IL-2 was measured following 18R5 treatment. In these assays, splenocytes were harvested from a minimum of four mice per group, filtered, and the red blood cells lysed and re-suspended in RPMI+10% FBS+penn/strep at a concentration of 10^6 cells/ml in the presence of 1 μg/ml hgp100 peptide. Cells were plated on pre-coated ELISpot plates, incubated overnight and processed according to manufacturer's instructions (MabTech, Cincinnati, Ohio). Developed plates were read on a BioSys BioReader 6000-F b. The results from this assay are shown in FIG. 4A (IFN-gamma) and FIG. 4B (IL-2). Values shown are total optical density. As shown in these figures, IFN-gamma and IL-2 were increased by addition of 18R5 therapy.

Data set [5] concerns B16F1 tumors. In words: T-cell tumor infiltration by flow cytometry (FACS). The class given is in vivo, mice. The following applies: compared to anti-CTLA-4 + anti-PD-L1 without 18R5 (or control antibodies). Here is the method: The change is T-cell tumor infiltration was also measured. Here, B16F1 tumors were isolated from control antibody, anti-CTLA-4 and anti-mouse PD-L1 combination; and anti-mouse Fzd7 (18R5)+anti-mouse anti-CTLA-4+ anti-mouse PD-L1 combination antibody-treated mice. Single cell suspensions were acquired from 4-6 independently treated tumors and were stained for tumor infiltrating immune cells using fluorescently-labeled anti-CD45, anti-CD4, and anti-CD8 antibodies. Flow cytometry analysis (FACS) was performed and the relative percentage populations of CD45+/CD4+ and CD45+/CD8+ T cells are shown.

In the case of “54F28: FZD8-Fc soluble receptor, SEQ ID NO:41 (SEQ ID NO:45 with signal sequence)”, the “anti-tumor growth vs control” value in data set [1] is given as “significant anti-tumor growth”. In addition, in data set [2], the “T cell cytotoxicity (specific cell lysis)” value was “increased”.

B1: 18R5: anti-FZD IgG2 antibody binding FZD1, FZD2, FZD5, FZD7, FZD8; heavy chain SEQ ID NO:11, light chain SEQ ID NO:12 (antibody)
heavy: EVQLVESGGGLVQPGGSLRLSCAASGFTFSHYTLSWVRQAPGKGLEWVSVISGDGSYTYYADSVKGRFTISSDNSKNTLYLQMNSLRAEDTAVYYCARNFIKYVFANWGQGTLVTVSSASTKGPSVFPLAPCSRSTSESTAALGCLVKDYFPEPVTVSWNSGALTSGVHTFPAVLQSSGLYSLSSVVTVPSSNFGTQTYTCNVDHKPSNTKVDKTVERKCCVECPPCPAPPVAGPSVFLFPPKPKDTLMISRTPEVTCVVVDVSHEDPEVQFNWYVDGVEVHNAKTKPREEQFNSTFRVVSVLTVVHQDWLNGKEYKCKVSNKGLPAPIEKTISKTKGQPREPQVYTLPPSREEMTKNQVSLTCLVKGFYPSDIAVEWESNGQPENNYKTTPPMLDSDGSFFLYSKLTVDKSRWQQGNVFSCSVMHEALHNHYTQKSLSLSPGK
light: DIELTQPPSVSVAPGQTARISCSGDNIGSFYVHWYQQKPGQAPVLVIYDKSNRPSGIPERFSGSNSGNTATLTISGTQAEDEADYYCQSYANTLSLVFGGGTKLTVLGQPKAAPSVTLFPPSSEELQANKATLVCLISDFYPGAVTVAWKADSSPVKAGVETTTPSKQSNNKYAASSYLSLTPEQWKSHRSYSCQVTHEGSTVEKTVAPTECS
modifications: Heavy chain amino acid sequence without predicted signal sequence; Light chain amino acid sequence without predicted signal sequence
Turning to B1, the “T cell cytotoxicity (specific cell lysis)” value in data set [2] is reported as “increased”. Also, in data set [3], the tumor growth result is listed as “decreased”. Besides, the “IFN-gamma secretion (ELISpot, total optical density)” value in data set [4] (FIG. 4A) is reported as “increased”. Also, the “IL-2 secretion (ELISpot, total optical density)” value in data set [4] (FIG. 4B) is on record as “increased”. In data set [5] (FIG. 6A), the “CD4+ T cell tumor infiltration (CD45+/CD4+)” value is recorded as “increased”. Moreover, the “CD8+ T cell tumor infiltration (CD45+/CD8+)” value in data set [5] (FIG. 6B) was “increased”.
